The results in this text go back to the DeepSol protein solubility set.

The series can be described thus: soluble on expression in E. coli; label from the status in PepcDB or PDB records.
Consider “MSLKYQLRFGGEGGQGVITAGEILAEAAIKEGRQAFKASTYTSQVRGGPTKVDIIIDDKEILFPYAVEGEVDFMLSTADKGYKGFRGGVKEGGIIVVEPNLVHPESEDYKKWQIFEIPIITIAKDEVGNVATQSVVALAIAAYMSKCIDLDVLKETMLHMVPAKTRDANAKAFDLGVKYATQAKPHEGHHHHHH”, for which the “soluble on expression in E. coli” value was “soluble”.

“MSLKDNEKYNALDFIKDDEINSLIAKGKELVSDKELVREIIEKSKSAEGLTPEETAVLLNLEDKELIEEMFKAARQVKEKLYGKRLVVFAPLYVSNYCVNNCTYCGYKHCNDELKRKKLNKEQLIEEVKVLESLGHKRIALEAGEDPVNAPLDYILDCIKSIYSIKFDNGSIRRINVNIAATSVEDYKRLKDAEIGTYILFQETYHKPTYERLHVSGPKHNYNYHTTAMHRAREAGIDDIGMGVLYGLYDYKYETLAMLMHAMDLEETTGVGPHTLSVPRIRPAENVSLENYPYLVDDEDFKKIVAILRLAVPYAGLILSTREEPGLRDEIIALGVSQVSTGSCTGVGGYSESYIDPEEKPQFEVGDHRSPVEMIESLMEAGYIPSYCTACYREGRTGERFMDIVKSGELYKICEANALITLKEFIDDYGTDRTREIGDKLIKKSIDEIDNESFRKSVEEKINKISNGTRDLRFEGHHHHHH”: the “soluble on expression in E. coli” value is recorded as “soluble”.

On to “MIVTLLGTGDSPGTPILNCHCRTCEDARRKGWERKRFSVMVQNNGKTVLIDTSPDLRRQLLDCGVEKVDAVIWTHCHFDHFGGFGEFYRVQNNVKVYSTPQIHEDIGHFMKFMSYKPVEVEAFENFTIAGMDFTLLPVNHPPVSAVGVKVEWKGYKVVVSGDTNVRIPEATLREMQNPDLLIVEALAPTGRFRKHMNAKEALELAKRLNAGKVVLTHLGHFFPPHHLAIKSYPVGEDYQSFSFGEGRLDEFFGDLEHHHHHH”, for which the “soluble on expression in E. coli” value is “not soluble”.

Consider “MNSPGVSANFFIPLSFDATSLIKYKLSDDLLARVAASGSLRSSSCRSAVWRLVLRCLPYETSDWEISLSRSRNLYRAHKENHLIDPHDTKFSQDPEFNNPLASIEQNPWNTFFEDNDLRDIIGKDVSRTFPEIEFFQNTSIRQMMSDILLVYAKEHPFVNYRQGMHEILAPLIFVIYSDNEAFQHAKENDELKMLTVEEEDILNCLFCKEYLEQDSYNLFCSVMLEVSRWYEEPTVTESPKRPIPKEPYMRVQDSAPASRLMEDLIDIGNLLHEIDPTLAKHLSTLDIPPQLYGIRWLRLLFGRELPLHDLLFLWDVLLIDRPIAPLAKCMFVSLLVQIRHLLLSSDYGGCLQYLMRYPPIADIDSFVKLARHYRNPKKNAKPMIKSNNFSHITVAGSSHPNRTQRPQRPPAAVNSKNDGAESPSTILALAPVFQKVKNTIRDRSNTVSGPSSPRRSNEPLREPLRTPQKKDNWANEVQMMEEQVSTLQTRLNEQDMMCCQVSKALEIYAEDVRNAKSSELCAVLSQNLLELSKTLMSIKTVPVGTSPPKHSRNGISDIQPKPRDSQPIRQHNEMVDMATKRPPL”, for which the “soluble on expression in E. coli” value was “not soluble”.

In the case of “MNEILKTEDEVVRWSVKKINDDTTLIEFELKRDLVPEDLKKINPPDAVKNKFANTFIVLSGRGPIWLYGFLIHFYHPTKGIGVFDPRLGGAVVVSSHSPNKKVGDVIKWEG”, the “soluble on expression in E. coli” value is reported as “not soluble”.

As for “QSTIKIVLIEDTKTLDEVVVIGYGTQKKSDVSGSVTSVSGDKLSKIPTANAEMALQGMAPGLSVNFGSGAAGSSATLQVRGVTSWKDDDGENSESNGPLVIIDGVPGNMSYLNPEDIKSISVLKDAATAAIYGSRSAAGVILIETHRGT”, the “soluble on expression in E. coli” value is on record as “not soluble”.

In the case of “MGSDKIHHHHHHMTRRPPLINRLGATPVHPERDPAHPLVVFGDNRFCAGELLDVQKMAGPHMHSQIELNFVLEGSMTYWFDGRELTISEGRLCLFWGMIPHQVIDRREGTRFICLYVPMSVFLGLASLSQFRDSVFRGAVIEALHLRAWDREIFLRWRDELLGGDEGDIEIVRSELTARLMRIERDGWRDLREQGSALASLGQRDAGWMLHVEKMLRFIGEHAPDTISAEDVGRAAGLHPNYAMSLFKRAVGTTINQAIIRHRLDTAQSLLISSDMPITEVAYESGFGSLSTFYEAFQRRFMEKPVQYRRRMRAKGTAAQSIA”, the “soluble on expression in E. coli” value is “not soluble”.

Turning to “VQQTERAVMLRFGRVVESDVKPGLHFKIPYVNQVRKFDARLLTLDAPTQRFLTLEKKAVMVDAYAKWRVADAERFYTATSGLKQIADERLSRRLEAGLRDQFGKRTLHEVVSGERDALMGDITASLNRMAQKELGIEVIDVRVKAIDLPKEVNRSVFERMSTEREREAREHRAKGRELAEGIRADADRQRRVIVAEAYRESEETRGDGDSKAAAIYAKAYNQDPEFYSFYRSLKAYRESFAEKRDVLVLDPSSEFFRY”, the “soluble on expression in E. coli” value was “not soluble”.

Turning to “MGSDKIHHHHHHMKLSRLKRKHKRVISVGKIAEQFWCEMKVELKLLYDIKPSNALVRKGKRIHDEISGKASLPRPKNFIDWLGGQIYFTNLSIESFLKSGLGREVFLVTKVDGDGWRWYLSGSIDEIRKKGGRTQVVERKTRLREEVPENESHKVQGLLYHLMLDEARRQKVSRNVKRAYGVVERAAISKEFSQAVGMTERNVKAMLRTLDSKLPMIPELDEEVVVIYESQKTGERIGEVRFKAQREEIERILQFSREYWAGEREALKTRENWKCRFCEVRKYCL”, the “soluble on expression in E. coli” value is “not soluble”.

“MGSDKIHHHHHHMKIAQIAPLTESVPPKLYGGTERVVSYITEALVDLGHDVTLFASGDSVTNAKLEAVWPRALRLDPGIRDRVAPHMLLMELVRRQAENFDVLHFHLDYYSFSVFKRQETPFVTTMHGRLDLPEQQPVFDTFNTAPVISISNAQRHPLPQARWLTTVYHGLPEQLYTPQPVEQKYLAFLGRISPEKRVDTAIRIAGRCGMPIRIAAKVDAADREYFERDIRPLLDLPYVEFIGEIADHQKAEFLSGAHALLFPIDWPEPFGLVMIEAMACGTPVIAFNRGSVPEVLEDGVTGFIVEDEIGAVAAVNRLHKMPRAGVRQRFEERFTSHRMAQQYVNAYQSVIRAQKRSRFKVIDTSGS”: the “soluble on expression in E. coli” value is given as “not soluble”.

For “MAKIGLFFGSDTGTTRKIAKQIKDMFDDEVMAKPLNVNRADVADFMAYDFLILGTPTLGDGQLPGLSANAASESWEEFLPRIADQDFSGKTIALFGLGDQVTYPLEFVNALFFLHEFFSDRGANVVGRWPAKGYGFEDSLAVVEGEFLGLALDQDNQAALTPERLKGWLSLIAADFGLVLPA”, the “soluble on expression in E. coli” value was “soluble”.

As for “MTVERLENGVIVQRNTNEIEISITLDTVHGKLEGSTGVNFFDHLLNTFCHYSGLGLRVSTCESKDGILHHLIEDFGISLGLAFRELFDYTKVRRFGEATVPMNEALVGCYVDLSGRPFFQKNFEFSVEKIEDMPVEGFEEFMCGFVNHARITVHFFKFFGKNDHHISESAMKSFGLAIAKALESSEKKTTKGVID”, the “soluble on expression in E. coli” value is given as “soluble”.

As to “MGSDKIHHHHHHMEEVVKRLAEIRAMDARGEGGRLFTYLYETGDPGVKEVSLRAFEMFLDTNALDPTVFKSALFFERELVSFASSLAGGVEGVVGTVTYGGTESIILAAMAAREWYRSLGGSRTPGIVAPQTVHPSVRKAARYLGMRLSIAPVDPGSKRVDIDSLVSLVDDRTAMVVVSAPNYPYGTVDDVRSVAEALSSQRVWLHVDACVGGFILPFMRELGLYSGAFAFDVEGVYSVSMDLHKYGYSPKGASVLLFRDGSLKKHSIFADLRWPGYPFINTTVLSSRSVAPLAAAWAVTNYLGRRGYLELARKAVEARDEIMRGLESIGFRSLAPIESTILSVALDDPADTLRFHANMSRRGWILGLQPGVEGLAPPNIHLTISPIHKLVSPQFLGDARASSSEPLPKELEEAWRLLESRGPLELAGMIGRTQYDQVIIAWILSSIPPDLAEDLARELTVEVYRG”, the “soluble on expression in E. coli” value is “not soluble”.

With “MAHHHHHHKNTAKTAPNHDRIKNLIAKLNNSKDEDKKKNSPNGQINRTGDVYAKNELINKKKKHINFETFLRIFLETYEEPLSVDELITSFEFFDKEKSGYLDEEKVRFILKNSEERLADEDMKLFLNSLNLRDKDKIDYVMLAKRLKNVA”, the “soluble on expression in E. coli” value is “soluble”.

Consider “MQRYLWQQADGKRHVYDTARHRVQAGRPFTALCGETVTPQTERGDLTAGLWFDGECPVCTIALAKALGWPVREISDLAHRFDWSPALITRLAEVLHCSFGEVVELTGARMVDA”, for which the “soluble on expression in E. coli” value is listed as “not soluble”.

Take “SNRKKLQKLTDTLTKNCKHFNKFEVNCLIKLFYDLVGGVERQGLVVGLDRNAFRNILHVTFGMTDDMIMDRVFRGFDKDNDGCVNVLEWIHGLSLFLRGSLEEKMKYCFEVFDLNGDGFISKEEMFHMLKNSLLKQPSEEDPDEGIKDLVEITLKKMDHDHDGKLSFADYELAVREETLLLEAFGPCLPDPKSQMEFEAQVFKDPNEFNDM”: the “soluble on expression in E. coli” value is recorded as “soluble”.

For the sequence “MSLKYVNKVIVILGASFAGMTCAQKLRQLNPNWDIVLIDKEIHPDYVPNGLNWYYRHEISGLNQAMWQTEEEQRLQNIRCLFGLKVEKINKEDRELMLSDGSSVYYDQLICAMGSQAESTYIDGADAQGVLTTKTYATSQNAKQVLDKSHKVAVVGAGIIGLDIAYSLHESGKAVTLLEAQERPDFRHTDPDMSLPLLDAMAESKLHFFQNQKVEKITVTREEKLCLRTLTGDTFTVDAVILAVNFRPDSRLLTGLVDLSVDNSVVVNDYFQTSDPNIYAIGDLIWSYFKGLNSAYYMPLINQAIRSAQMLAYHLSGHAVPKLKITRATGSKHFGYYRANIGLTELEAGFYEDTVSVTYFPKEQYDLRIKLIANQKTGHLLGAQLISKENCLATANQLVQAISCDMTDFDLAFQDFIYTARESEMAYMLHQAAINLYEKRIGEGHHHHHH”, the “soluble on expression in E. coli” value was “soluble”.

Turning to “MTDVVVAGGGLAGLVAARHLAESGRDVTVFEQRSDVGGRVRTVHEDGYTFDRGFQVMFTAYPAAKRELDIEALAPRTFTPGATIASPNHRSVLSDPLRNPSAAPQTLLNTDVRTADKLRLFRLQRELAGVEPVELLSRGGTTIREYLADYGFSKRFVERFAAPFYGGITLDRSLGTDSSIFEYTYKMLSEGEIFVPADGMQAMPRQLADRARSAGATIETDAPVTELETHEGEVTAEVGRETVTAESAVVATDPQTAAELTDIDAIPTEPVGCVTQYFALPTNRAPATGQRIILNATDDRPNTVAPLSAVASEYAPAGMELYSATFLGTPEEDDAELAAEVRAALQSWYPNASFEALELLRTDRVPLSQFAQPPGYRDALPDPTAPEGNAVLAGDYTRWSAIQGALESGKVAADLLRLEHHHHHH”, the “soluble on expression in E. coli” value is “not soluble”.

As to “MGSDKIHHHHHHMAYGGRITLNVRIALVGEELEIRENVNIEIEEGIITHIGNGFSSEGITFKNGILIPGIVNAHVHSADFICQEMGYNMPISKVVGDPHSVKYECFAKNTKESIMNSIERFVLRARELGSNVMIDFREQGLEGSLISSTIKKKMATNGVKYYFLGRLEEDEFKDIRNLNSLYKIADGYGLSSAFSTSEIELIKHVFNNKIRSVHVSETIKHWLRDDLEYVMKRYEPNLIIHGTYLSEEEIDIMRYRKASIVYCPRSNLWFSVGIPKVINGLKSGVNLLIGTDNGGVLDPDMWKEMETLLLISRVQDPLSDHSLQILKASTINAYKFLGIRGWIEEGNPIEAGLLVLEGDSTGILNSNNKYIGIIKRGNKIIYNLGAIQKII”, the “soluble on expression in E. coli” value is listed as “not soluble”.

As for “MNYMPGTASLIEDIDKKHLVLLRDGRTLIGILRSIDQFANLVLHQTVERIHVGKKFGDIPRGIFVVRGENVVLLGEVDLDKECDQILQRVSIEEILEEQRTEQQAKQESERLKLQAVKERGLSIPKADTLDDF”, the “soluble on expression in E. coli” value is “soluble”.

In the case of “MDSADPQLNRFLQQLQAETQRQKFTEQVHTLTGRCWDVCFADYRPPSKMDGKTQTCIQNCVNRMIDASNFMVEHLSKMNGGHV”, the “soluble on expression in E. coli” value is “not soluble”.
